B1: GDNF: glial cell line-derived neurotrophic factor, a potent survival factor for many CNS neuronal cell populations (R&D) (protein, UniProt P39905 78-211, looked up)
Glial cell line-derived …: SPDKQMAVLPRRERNRQAAAANPENSRGKGRRGQRGKNRGCVLTAIHLNVTDLGLGYETKEELIFRYCSGSCDAAETTYDKILKNLSRNRRLVSDKVGQACCRPIAFDDDLSFLDDNLVYHILRKHSAKRCGCI

How the values were obtained:
[1] = system: size-sieved stem cells (SSCs) derived from human bone marrow; test: Morphology of SSCs (phase contrast), neuronal-like transformation; format: cell-based; conditions: for morphology of neurites/processes of SSCs: ITS medium, 7 days, GDNF 50 ng/ml, PACAP 20 ng/ml, dbcAMP 0.1 mM, compared to ITS medium alone
Description: SSCs were isolated from human bone marrow as described previously (Hung et al. (2002)). In brief, human bone marrow was aspirated from the iliac crest of normal donors, and then washed twice with phosphate-buffered saline (PBS). The cells were loaded into 1.073 g/ml Percoll solution (Sigma®), and then centrifuged at 900 g for 30 min. The mononuclear cells (MNCs) were collected from the interface, and plated at the density of 1×10^6 MNCs/cm^2 onto a 10-cm plastic culture dish comprised of an inserted sieve with 3-μm pores (Transwell System, Corning®). The cells were cultured in Dulbecco's modified Eagle's medium-low glucose (DMFM-LG) containing 10% fetal bovine serum (FBS), 100 U/ml penicillin, […] streptomycin, and 0.25 μg/ml amphotericin B (serum-containing medium). […] However, the cells that passed through the sieve were small, polygonal and had less renewal. SSCs were then harvested with 0.25% trypsin and 1 mM EDTA, and replated on 10-cm culture petri dishes. When SSCs were grown in serum containing medium to 80% confluence, the cells were replated onto 35-mm culture petri dishes at the density of 1×10^5 cells/dish for Western Blotting, or onto 8-well chambers at the density of 1×10^4 cells/well for immunofluorescence.
[…] ITS medium consisted of 56% DMEM-LG (Life Biotech®), 40% MCDB-201 medium (Sigma®), and 1×ITS medium supplement (Sigma®) contained 1 mg/ml insulin, 0.55 mg/ml human transferrin, 0.5 μg/ml sodium selenite, 10 nM dexamethasone (Sigma®), and 10 μM ascorbic acid (Sigma®)). […] However, when SSCs were cultured in serum free medium with ITS supplement, these cells adhered well onto cultured plates and extended their processes. Therefore, treatments were performed in ITS medium.

[2] = system: size-sieved stem cells (SSCs) derived from human bone marrow; test: Western Blotting of neuron-specific markers (NF-L, NF-H) and α-tubulin in SSCs; format: cell-based; conditions: 7 days in ITS medium; for expression of NF-L protein in SSCs: compared to ITS medium alone
Description: This is to study the effects of GDNF, PACAP and dbcAMP on neuronal differentiation of SSC in ITS medium. The levels of neuron-specific markers (NF-L and NF-H) in the SSCs were examined by Western Blotting. The cells were replated at the density of 1×10^5 cells per 35 mm petri dish and cultured for 7 days in ITS medium with GDNF, PACAP or dbcAMP at the distinct concentrations. Cells were harvested and gently homogenized on ice using PBS containing 1% SDS, 1 mM phenylmethyl-sulfonylfluoride (PMSF), 1 mM EDTA, […], […], and […]. Protein concentrations were determined using a Bio-Rad® DC kit. Ten μg of total protein was loaded onto 7.5% SDS-PAGE, and transferred to a nitrocellulous membrane. NF-L (70 kDa) and NF-H (200 kDa) were identified by incubating the membrane with anti-NF antibodies (Chemicon®) overnight at 4° C., followed by horseradish peroxidase-conjugated secondary antibodies and enhanced chemiluminescence solution (NEN LifeScience®).

[3] = system: size-sieved stem cells (SSCs) derived from human bone marrow; test: Immunofluorescence staining for α-internexin in SSCs; format: cell-based; conditions: 7 days in ITS medium; GDNF 50 ng/ml, PACAP 20 ng/ml, dbcAMP 0.1 mM
Description: Immunofluorescence staining for another neuronal intermediate filament protein, α-internexin (FIG. 5), was performed using antibodies against α-internexin (1:200; Chemicon®).

[4] = system: size-sieved stem cells (SSCs) derived from human bone marrow; test: Immunofluorescence for synapsin-1 in SSCs; format: cell-based; conditions: 7 days in ITS medium; 50 ng/ml GDNF or 20 nM PACAP
Description: To detect the morphological change of the SSCs that had been treated with 50 ng/ml GDNF or 20 nM PACAP in ITS medium for 7 days, the SSCs were fixed in PBS-containing 4% paraformaldehyde for 10 minutes. Examination of immunofluorescence for synapsin-1, a synapse vesicle protein, was performed by incubating SSCs with anti-synapsin-1 antibodies (1:200; BD Biosciences®) in PBS-containing 0.1% Triton X-100 and 5% horse serum overnight at 4° C., followed by biotinylated secondary antibodies (1:200; Vector®) and FITC-avidin (1:200; Vector®).

[5] = system: rats with spinal cord injury (SCI); conditions: intraspinal injection; cited from earlier work

| Molecule | morphology of neurites/processes of SSCs [1] | level of α-tubulin in SSCs [2] | expression of NF-L protein in SSCs [2] | process branching/elongation of SSCs (α-internexin staining) [3] | response of SSCs in DMEM-LG medium without serum ([1]; DMEM-LG medium without serum (no ITS supplement)) | NF-H levels in SSCs [2] | processes of synapsin-1 positive cells [4] | hindlimb recovery [5] |
| --- | --- | --- | --- | --- | --- | --- | --- | --- |
| CCCC(=O)Nc1ncnc2c1ncn2[C@@H]1O[C@@H]2COP(=O)(O)O[C@H]2[C@H]1OC(=O)CCC [dbcAMP, dibutyryl cAMP, reference compound] | induced highly branched, elongated, and delicate processes | increased | increased | more extensive branched, elongated processes | – | – | – | – |
| B1 | further improved the extension of neurites | induces | stimulatory effect | could induce process branching of SSCs to some extent | respond poorly | less effect | extended processes with branching | improved hindlimb recovery |

— patent US20080175829A1, “METHOD FOR INDUCING NEURAL DIFFERENTIATION” (priority 2004, published 2008)
